System: MS2 coat protein
Test: apparent KD of MS2 coat protein; higher = weaker reporter binding
Conditions: Eterna round: R107
How it was run: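 Apparent KD stands for the median, per design, of fits to normalised cluster binding curves. The curves came from titrating on-chip-transcribed RNA switches on Illumina sequencing clusters with SNAP-549-labelled MS2 coat protein, twofold from 0.7 or 1.5 nM to 3 µM. Buffer was 100 mM Tris-HCl pH 7.5, 80 mM KCl, 4 mM MgCl2, without or with constant ligand.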

[1] = input ligand: theophylline 20 uM
[2] = input ligand: tryptophan 2.4 mM
[3] = input ligand: theophylline 2 mM

Sequence | apparent KD of MS2 coat protein (input ligand: arginine 13.2 mM) | apparent KD of MS2 coat protein [1] | apparent KD of MS2 coat protein [2] | apparent KD of MS2 coat protein (input ligand: none) | apparent KD of MS2 coat protein [3]
AUAUUAGACCUGGAUACCAGCGACAUGAGGAUCACCCAUGUAUGUGCAUCUGCCAUGAUAUGCCCUUGGCAGCCACCGAGGUCGU [CZZMULLIN] | 12.4 nM | 16 nM | 10.8 nM |  | 
AAGGUGAUCCGUGAUACCAGCUCAACAUGAGGAUCACCCAUGUAACGGACGAAAGUCCGGAGCCCUUGGCAGCACGGUUGCCAAG [(M)'-(Theo1)-(Ms2)-(Theo2)-(M'')-(T2)'_Design1b] | 29.4 nM | 62 nM | 83.8 nM | 127 nM | 12.5 nM
UUGGCACGGACGGCCGCCACUCUUUCACAUGAGGAUCACCCAUGUUAUCUAGUCCUCAGCAGAAAGAGGACCGGGUCGGAGUUGG [theeternabot_exclusion_MS2_Trp_B_13] | 75.1 nM | 168 nM |  |  | 214 nM
AUUAAUUUAUUUCUCAAUUUAAUUUCAGAAGGAGCGUGAUGUUUCACAGGUAGGUCGCUGUUUACAUGAGGAUCACCCAUGUUUU [JR_SSArginiA_Sub004] | 32 nM | 44.4 nM | 31.8 nM | 40.2 nM | 40.4 nM
AAUAUCAUGAGGAUCACCCAUGAAGAAGAUACCAGAGUGAUGAUCCUCCCUUGGCAGCUUAACGCUGAUUGAUUACAAUCAGCGA | 31.1 nM | 128 nM | 30.3 nM | 51.8 nM | 200 nM
UACAUGAGGAUCACCCAUGUAUGAAGGGAUACCAGCGACAGUAAGCGCCCUUGGCAGCCCGUGAAUAAAGGGUGGGUAAAAUAGU [Exclusion Theophyline A GF 3] | 26.9 nM | 30.9 nM | 16.1 nM | 21.4 nM | 39.4 nM
AAACGAGAGACAGAUACCAGCGCAGGAACGGAGUAUGGUGACAUGAGGAUCACCCAUGUGCGCCCUUGGCAGCUGAGCCGUAUUG [theeternabot_exclusion_MS2_Theo_B_37] | 30 nM | 43.3 nM | 33.5 nM |  | 
CUAGACUGUGCGGCCGCCACUGGCUCAUCCUGCAUUACAUGAGGAUCACCCAUGUUGCGGCCUCCCAGGACCGGGCAUAGUCUGC [Riinzaa] | 91 nM | 474 nM |  |  | 734 nM
CUAUAUAUAGCGGCCGCCACUUACUCAUGAGGUAACAACAUGAGGAUCACCCAUGUUUGAGGAUCAAGGACCGGGCUAUAUAUAG [AstrosSSTryB#4] | 28.1 nM | 33.5 nM |  |  | 33.2 nM
UAUCCACAUGAGGAUCACCCAUGUAGGGAAGGAGCGGUGAUUUCACCAGGUAGGUCGCCUUGCUGAGGGUUGCCGGUGGAAUCGU [Exclusion - Arginine A (Freestyle 33)] | 12.5 nM | 14.8 nM | 16.2 nM | 15.7 nM | 13.1 nM
CCUAUGCAGUCGGCCGCCACUGUACAUGAGGAUCACCCAUGUUCCAAAAUAAAAGGAACUGAAAUCAGGACCGGGACUGUAUAGG [Ex Tryptophan B 1] | 29.4 nM | 37.2 nM | 32.6 nM | 33.3 nM | 39 nM
ACGCUGAUUGAUUACAAUCAGCGAAAAGAUACCAGUGGGUAAUCCCACCCUUGGCAGCUUAAACAUGAGGAUCACCCAUGUGGUA [TheoAS 14 #MS2Right #BothOrNeither #AlternativeMS2] | 79.9 nM | 146 nM | 126 nM |  | 
GCACAACAUGAGGAUCACCCAUGUCGAGAUACCAGAACAUAUAUAUUCCCUUGGCAGCUCACACCUUUAAUGUAAAAUUCUUUGG [theeternabot_sameState_MS2_Theo_A_47] | 12 nM | 15.9 nM | 13.9 nM |  | 
AAUAUAUAUCACGAACUGUGGUGUAUGUUGCGAGGACCGGUACGGCCGCCACUCGACCGGUGGUACAUGAGGAUCACCCAUGUUG [XTryp A #10] | 35.6 nM | 82 nM | 58.1 nM | 57.2 nM | 56.4 nM
GGUCUCUGGAGCGAUACCAGCUUAAGUGUACUGGCCAGGUACAUGAGGAUCACCCAUGUAAGCCCUUGGCAGCGCUCCAGAGACC [#1 Exclusion - Theophylline B Attempt #14 (HarryS)] | 16.7 nM | 16.1 nM | 12.2 nM | 10.4 nM | 41.5 nM
AAAUUAUCGGCGGCCGCCACUAGAGUUAGGCUUAUGUACUGGGUAACAUGAGGAUCACCCAUGUAUAGGACCGGGCCAUAAUAAA [Same State - Tryptophan B (Freestyle 4)] | 38.7 nM | 88.9 nM | 72.1 nM | 55.2 nM | 57.5 nM
CCGGGCCCGGGAGACCGGGCCCGGACUGAAGGAGCGGGAAUAAACCCAGGUAGGUCGCAGAGAUCCACAUGAGGAUCACCCAUGU [!0.U] | 133 nM | 51.7 nM | 36.8 nM | 54.5 nM | 36.5 nM
ACAUUUAACUGAAGGAGCGUGAUAAACAUGAGGAUCACCCAUGUACCACAGAUUUUCAGAUCACAGGUAGGUCGCAGACUAAUGA [JR_ExcArginiB_Sub014] | 9.29 nM | 14.1 nM | 11.5 nM | 11.1 nM | 11.3 nM
ACAUGAGGAUCACCCAUGUUUGAUGUUCCUCGAGGACCGGUACGGCCGCCACUCGAACGAGUGGCGCGCGCGCGCGCGCGCGCGC [aQa] | 10.9 nM | 22.9 nM | 13 nM | 12.5 nM | 14.5 nM
GAGGUCCUGAGAGAUACCAGUGAGGCCACAUGAGGAUCACCCAUGUCCCUCACUCCGGCCCACCCUUGGCAGCUCGGAAGGUAAA [Exclusion Theophylline B GF 23] | 14.9 nM | 29.7 nM | 17.5 nM |  | 
GGGCGCUAUCCCGCGAGGGAUAGCGUUCGGCGAGGACCGGUACGGCCGCCACUCGAACGAGUGGGUACAUGAGGAUCACCCAUGU [Faa] | 23.1 nM | 39.6 nM | 30.6 nM | 28 nM | 36.3 nM
AAGCUGCCAAGAACAUGGGUGAAAUGUGAUACCAGCUAGGAAACUAGCCCUUGGCAGCACAUGAGGAUCACCCAUGUAAUAAUAA [(T)'-(M)'-(T1)-(T2)-(M1)-(M2)_Design2_2/19/17] | 75.7 nM | 264 nM | 377 nM |  | 
GGGCAAGAGGGAAGGAGCGUCAGCUGAGUCACAUGAGGAUCACCCAUGUAGCACAUAGUGUGACAGGUAGGUCGCCCUCUGCCCU [SS-ArgB5] | 11.1 nM | 14.4 nM | 11.6 nM | 9.19 nM | 11.4 nM
AGGACAUCGAGAAGGAGCGCAUCCAAACCACACAUGAGGAUCACCCAUGUAUAAAUAUGCAUGCAGGUAGGUCGCUCGGCGUCUU [Leanerin] | 57.5 nM | 121 nM | 87.4 nM | 99 nM | 85.7 nM
GCUAUGGCUGGAAGGAGCGUGAAUUUCAGCGAACAUGAGGAUCACCCAUGUAAGGAUAUGGCACAGGUAGGUCGCUAGCCAUAGC [#19 Same State - Arginine B] | 13.6 nM | 21.2 nM | 13.4 nM | 14.3 nM | 15.1 nM
GGACUAACCAGAAGGAGCGACACGCAGAAACUGCAAAUUCCUCCACACGAGGAUCACCCGUGUCAGGUAGGUCGCUGGUUAGUCG | 27.8 nM | 31.1 nM | 22.2 nM | 24 nM | 28.4 nM
ACAUGAGGAUCACCCAUGUGGCGACUUGAUACCAGACCCGCACUAGUCCCUUGGCAGCAACUACGUGAGGGACACCCAUGUGAAG | 17.6 nM | 41.6 nM | 21.6 nM | 25.8 nM | 38.2 nM
AGUGACUACAUCUGGAAUUAAGGUAGGGAAGGAGCGCGGUAAGACGCAGGUAGGUCGCCCUACAUGAGGAUCACCCAUGUGAUGU [XARG-A 28] | 75.5 nM | 264 nM | 232 nM | 354 nM | 331 nM
AUGCACCUCGUCCAGGCAAUCUUUAGUGAUACCAGCUAACUCCUUGGCCCUUGGCAGCACAUGAGGAUCACCCAUGUGCGACAUC [Tidile] | 11.1 nM | 14.9 nM | 13.9 nM |  | 
ACACAUGAGGAUCACCCAUGUUGAGGAACACGAGGACCGGUACGGCCGCCACUCGACACAUGAGGAUCACCCAUGUGAUCACCCA [Same State Tryptophan A 2] | 49.7 nM | 129 nM |  |  | 173 nM
